B1: Pistol ribozyme (parent)
chain: GGGUCGUUGUUCCAUAAUCGCGUGGAUAUGGCACGCAAGUUUCUACCGGGCACCGUAAAUGUCCGACUGGAGCCGUUCGGGCGGCUAUAAACAGACCUCAGGCCCGAAGCGUGGCGGCACCUGCCGCCGGUGGUAAAAAAGAUCGGAAGAGCACACGUCU

Variants of: B1
Experiment: aptazyme ON/OFF ratio, guanine; higher = stronger switching; co-transcriptional cleavage with and without guanine

| Variant | aptazyme ON/OFF ratio |
| --- | --- |
| U7A U8A U10C U11G C12A C13G | 1.16 |
| U7A U8C C12U C13G | 1.27 |
| U7A U8C C12U C13U | 1.27 |
| U7A U8C C12U C13A | 1.3 |
| U7A U8A U10G U11C C13U | 1.04 |
| U7A U8A U10G U11C C13G | 1.11 |
| U7A U8A U10G U11C C13A | 1.17 |
| U7A U8A U10G U11A C12A C13A | 1.64 |
| U7A U8A U10G U11A C12A C13G | 1.1 |
| U7A U8A U10G U11A C12A C13U | 1.7 |
| U7A U8C G9A U10A U11C C13U | 1.04 |
| U7A U8C G9A U10A U11C C13G | 1.03 |
| U7A U8C G9A U10A U11C C13A | 1.02 |
| U7A U8C G9A U10G U11C C13A | 1.06 |
| U7A U8C G9A U10G U11C C13U | 1.05 |
| U7A U8C G9A U10G U11C C13G | 1.06 |
| U7A U8A U10G U11C C12U C13G | 1.48 |
| U7A U8A U10G U11C C12U C13A | 1.42 |
| U7A U8A U10G U11C C12U C13U | 1.47 |
| U7A U8C G9A U10A U11A C12U | 1.25 |
| U7A U8C G9A U10A U11A C12G | 1.24 |

| Variant | aptazyme ON/OFF ratio |
| --- | --- |
| U7A U8C G9A U10A U11A C12A | 1.31 |
| U7A U8C G9A U10A U11C C12A | 1.15 |
| U7A U8C G9A U10A U11C C12U | 1.09 |
| U7A U8C G9A U10A U11C C12G | 1.21 |
| U7A U8C C12A | 1.42 |
| U7A U8C C12U | 1.49 |
| U7A U8C C12G | 1.18 |
| U7A U8C G9A U10G U11G | 1.08 |
| U7A U8C G9A U10G U11C | 1.04 |
| U7A U8C G9A U10G U11A | 1.03 |
| U7A U8C G9A U10A U11C C12U C13A | 1.12 |
| U7A U8C G9A U10A U11C C12U C13U | 1.05 |
| U7A U8C G9A U10A U11C C12U C13G | 1.15 |
| U7A U8C | 1.98 |
| U7A U8C G9A U10C U11A C12G | 1.21 |
| U7A U8C G9A U10C U11A C12U | 1.25 |
| U7A U8C G9A U10C U11A C12A | 1.19 |
| U7A U8A U10G U11A C12U C13G | 1.27 |
| U7A U8A U10G U11A C12U C13U | 1.11 |
| U7A U8A U10G U11A C12U C13A | 1.35 |
| U7A U8A U10G | 1.52 |

| Variant | aptazyme ON/OFF ratio |
| --- | --- |
| U7A U8C G9A U10A U11A C12G C13U | 1.21 |
| U7A U8C G9A U10A U11A C12G C13A | 1.11 |
| U7A U8C G9A U10A U11A C12G C13G | 1.13 |
| U7A U8C G9A U10A U11G C12A C13U | 1.16 |
| U7A U8C G9A U10A U11G C12A C13G | 1.23 |
| U7A U8C G9A U10A U11G C12A C13A | 1.08 |
| U7A U8A U10C U11G C12U | 1.45 |
| U7A U8A U10C U11G C12G | 1.34 |
| U7A U8C G9A U10A U11C | 1.07 |
| U7A U8C G9A U10A U11A | 1.19 |
| U7A U8C G9A U10A U11G | 1.26 |
| U7A U8C G9A U10G C12A | 1.1 |
| U7A U8C G9A U10G C12G | 1.15 |
| U7A U8C G9A U10G C12U | 1.23 |
| U7A U8C G9A U10G U11A C12U | 1.04 |
| U7A U8C G9A U10G U11A C12A | 1.13 |
| U7A U8C G9A U10G U11A C12G | 1.27 |
| U7A U8C G9A U10C U11G C13A | 1.33 |
| U7A U8C G9A U10C U11G C13U | 1.46 |
| U7A U8C G9A U10C U11G C13G | 1.37 |
| U7A U8A U11C | 1.38 |

| Variant | aptazyme ON/OFF ratio |
| --- | --- |
| U7A U8A U11G | 1.25 |
| U7A U8A U11A | 1.22 |
| U7A U8C G9A U10A | 1.37 |
| U7A U8C G9A U10C | 2.35 |
| U7A U8C G9A U10G | 1.37 |
| U7A U8C G9A U10G U11C C12G C13U | 1.18 |
| U7A U8C G9A U10G U11C C12G C13G | 1.09 |
| U7A U8C G9A U10G U11C C12G C13A | 1.21 |
| U7A U8A U11A C12U | 1.31 |
| U7A U8A U11A C12G | 1.2 |
| U7A U8A U11A C12A | 1.44 |
| U7A U8C G9A C12U | 1.21 |
| U7A U8C G9A C12G | 1.43 |
| U7A U8C G9A C12A | 1.22 |
| U7A U8C G9A U10C C12A C13G | 1.18 |
| U7A U8C G9A U10C C12A C13A | 1.2 |
| U7A U8C G9A U10C C12A C13U | 1.13 |
| U7A U8C G9A U10G C12A C13U | 1.19 |
| U7A U8C G9A U10G C12A C13G | 1.2 |
| U7A U8C G9A U10G C12A C13A | 1.24 |
| U7A U8C G9A U10A U11C C12G C13U | 1.2 |

— the RNAGym collection of RNA variant scans (doi:10.1021/acssynbio.7b00057)
